{
  "source": "patent US20180079808A1",
  "about": "(AbbVie / Abbott, published 2018)",
  "binders": {"B1": {"name": "9C11 (antibody, V domains shown)", "VH": "QVRLQQPGAELVRPGASVKLSCKASGYTFTSSWIHWVNQRPGQGLEWIGMIHPSDSETRLNQKFKDKATLTVDKSSSTAYMQLSSPTSEDSAVYYCASTATDFDYWGQGTTLTVSS", "VL": "DVVLTQTPLSLPVNIGDQASISCRSTQTLLNSDGFTYLDWYLQKPGQSPQLLIYLVSNRFSGVPDRFSGSGSGTDFTLKISRVEAEDLGVYYCFQNNYLPLTFGAGTKLELKR"}, "B2": {"name": "13C5.5, humanized recombinant immunoglobulin IgG1 (IgG1, κ) monoclonal antibody (antibody, V domains shown)", "VH": "EVTLRESGPGLVKPTQTLTLTCTLYGFSLSTSDMGVDWIRQPPGKGLEWLAHIWWDDVKRYNPALKSRLTISKDTSKNQVVLKLTSVDPVDTATYYCARTVSSGYIYYAMDYWGQGTLVTVSS", "VL": "DIQMTQSPSSLSASVGDRVTISCRASQDIRNYLNWYQQKPGKAPKLLIFYTSKLHSGVPSRFSGSGSGTDYTLTISSLQPEDIATYYCQQGNTLPLTFGGGTKVEIK"}, "B3": {"name": "Fab portion of 13C5.5 antibody (Fab, V domains shown)", "VH": "EVTLRESGPGLVKPTQTLTLTCTLYGFSLSTSDMGVDWIRQPPGKGLEWLAHIWWDDVKRYNPALKSRLTISKDTSKNQVVLKLTSVDPVDTATYYCARTVSSGYIYYAMDYWGQGTLVTVSS", "VL": "DIQMTQSPSSLSASVGDRVTISCRASQDIRNYLNWYQQKPGKAPKLLIFYTSKLHSGVPSRFSGSGSGTDYTLTISSLQPEDIATYYCQQGNTLPLTFGGGTKVEIK", "notes": "Fab used for the crystal structure with human IL-13; also called 13C5.5 Fab"}, "B4": {"name": "5G1 (antibody, V domains shown)", "VH": "QVQLQQSGAELARPGTSVKLSCKASGYTFTTYGVSWVKQRTGQGLEWIGEIYPGNYNTYYNEKFRGKATLTADKSSSTAYMQLSSLTSEDSAVYFCSRWRTSYFSDYGYFDYWGQGTTLTVSS", "VL": "DVVMTQTPLSLPVSLGDQASISCRSSQSLVHSHGNTYLHWYLQKPGQSPKLLIYTVSNRFSGVPDRFSGSGSGTDFTLKISRVEAEDLGVYFCSQSTHVPYTFGGGTKLEIKR"}},
  "key": {"cynomolgus monkey rIL-13 [1]": {"target": "T1, cynomolgus monkey rIL-13 (cynomolgus monkey, UniProt Q0PW92 21-132)", "T1 sequence (Q0PW92 entry or part of it)": "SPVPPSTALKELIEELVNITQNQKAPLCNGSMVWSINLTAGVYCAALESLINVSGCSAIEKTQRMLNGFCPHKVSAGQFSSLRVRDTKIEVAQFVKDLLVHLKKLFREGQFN", "assay": "cell-based or functional assay"}, "human IL-13 wild type [2]": {"target": "T2, human IL-13 wild type (human, UniProt P35225 35-146, limits assumed)", "T2 sequence (P35225 other isoform, or with tags, fused parts or gaps limits assumed)": "as the sequence (Q0PW92 entry or part of it) above, with S1G, K10R, V42M, N67S, R83H, V100L, Q110R counted along it", "assay": "cell-based or functional assay"}, "[3]": {"target": "T3, human IL-13 variant (R130Q) (human, UniProt P35225 35-146, limits assumed)", "T3 sequence (P35225 35-146 limits assumed, stated change not applied)": "as the sequence (Q0PW92 entry or part of it) above, with S1G, K10R, V42M, N67S, R83H, V100L counted along it", "assay": "cell-based or functional assay"}, "human IL-13 wild type [4]": {"target": "T2, human IL-13 wild type", "assay": "column 'Affinity, KD (nM)', hIL-13wt; method not given"}, "[5]": {"target": "T3, human IL-13 variant (R130Q)", "assay": "column 'Affinity, KD (nM)', hIL-13v; method not given"}, "rat rIL-13": {"target": "T4, rat rIL-13 (rat, UniProt P42203 19-131, limits assumed)", "T4 sequence (looked up)": "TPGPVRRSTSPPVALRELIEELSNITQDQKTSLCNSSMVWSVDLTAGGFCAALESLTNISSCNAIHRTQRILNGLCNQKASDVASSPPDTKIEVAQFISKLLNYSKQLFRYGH", "assay": "cell-based or functional assay"}, "cynomolgus monkey rIL-13 [6]": {"target": "T1, cynomolgus monkey rIL-13", "assay": "cell-based or functional assay", "remark": "listed apart in the source"}, "human IL-13 wild type [7]": {"target": "T2, human IL-13 wild type", "assay": "crystal structure of the complex"}},
  "data": [
    {"binder": "B1", "values": [
      {"measurement": "Potency, IC50 (neutralisation of Cyno IL-13; assay not given)", "setting": "cynomolgus monkey rIL-13 [1]", "value": 0.64, "unit": "nM"},
      {"measurement": "Potency, IC50 (neutralisation of hIL-13wt; assay not given)", "setting": "human IL-13 wild type [2]", "value": 0.184, "unit": "nM"},
      {"measurement": "Potency, IC50 (neutralisation of hIL-13v; assay not given)", "setting": "[3]", "value": 0.17, "unit": "nM"},
      {"measurement": "Kd", "setting": "human IL-13 wild type [4]", "value": 0.112, "unit": "nM"},
      {"measurement": "Kd", "setting": "[5]", "value": 0.092, "unit": "nM"}
    ]},
    {"binder": "B2", "values": [
      {"measurement": "IC50, in vitro neutralization", "setting": "rat rIL-13", "value": 12.4, "unit": "nM"},
      {"measurement": "fold lower in vitro potency compared to human rIL-13", "setting": "rat rIL-13", "value": 155, "unit": "fold"},
      {"measurement": "fold lower in vitro potency compared to human rIL-13", "setting": "cynomolgus monkey rIL-13 [6]", "value": 51, "unit": "fold"},
      {"measurement": "half maximal inhibitory concentration (IC50), in vitro neutralization", "setting": "cynomolgus monkey rIL-13 [6]", "value": 4.1, "unit": "nM"}
    ]},
    {"binder": "B3", "values": [
      {"measurement": "binding result", "setting": "human IL-13 wild type [7]", "value": "binds"}
    ]},
    {"binder": "B4", "values": [
      {"measurement": "Potency, IC50 (neutralisation of Cyno IL-13; assay not given)", "setting": "cynomolgus monkey rIL-13 [1]", "value": 0.612, "unit": "nM"},
      {"measurement": "Potency, IC50 (neutralisation of hIL-13wt; assay not given)", "setting": "human IL-13 wild type [2]", "value": 0.076, "unit": "nM"},
      {"measurement": "Potency, IC50 (neutralisation of hIL-13v; assay not given)", "setting": "[3]", "value": 0.048, "unit": "nM"},
      {"measurement": "Kd", "setting": "human IL-13 wild type [4]", "value": 0.008, "unit": "nM"},
      {"measurement": "Kd", "setting": "[5]", "value": 0.13, "unit": "nM"}
    ]}
  ]
}
